The results in this text go back to US20240190903, “COMPOUNDS FOR PROGRAMMABLE PROTEIN DEGRADATION AND METHODS OF USE FOR THE TREATMENT OF DISEASE” (Mayo Foundation for Medical Education and Research, published 2024).

In the series the target is p53 WT (UniProt P04637 P04637:1-393). In words: EMSA; GST-p53 purified from bacteria. The following applies: tags: GST; chain copies: 4; label: biotin.
Sequence of p53 WT (P04637 whole entry, one chain of several): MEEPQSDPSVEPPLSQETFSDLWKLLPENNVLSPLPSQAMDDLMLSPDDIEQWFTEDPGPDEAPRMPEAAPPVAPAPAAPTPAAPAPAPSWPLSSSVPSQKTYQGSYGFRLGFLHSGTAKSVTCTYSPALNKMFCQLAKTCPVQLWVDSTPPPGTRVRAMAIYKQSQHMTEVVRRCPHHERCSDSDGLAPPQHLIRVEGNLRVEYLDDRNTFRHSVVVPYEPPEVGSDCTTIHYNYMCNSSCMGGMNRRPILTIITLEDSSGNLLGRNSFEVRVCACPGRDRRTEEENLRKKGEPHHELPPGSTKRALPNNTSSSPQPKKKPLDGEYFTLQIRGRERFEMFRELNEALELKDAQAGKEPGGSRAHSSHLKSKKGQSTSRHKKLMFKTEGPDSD

Method: For supershift assay, anti-p53 antibodies were added into the cell nuclear extract mixed with the biotin-labeled probes and the mixture were incubated with for 1 hour at room temperature before loading into 6% of non-denatured polyacrylamide gel.

B1: CTNNB1 probe 1 (MP53BS) (dsDNA)
DNA 1: GCCCCCTCGCGCCCCGCCCCTTGTC
DNA 2: GACAAGGGGCGGGGCGCGAGGGGGC
For B1, the binding result is listed as “no binding”.
